# Measurements: PMC9786865, “Molecular Cloning and Characterization of a New Family VI Esterase from an Activated Sludge Metagenome” (Microorganisms, 2022)
# B1: Est6 (uncultured sludge bacterium) (protein)
# chain: MTELRINDDLVRWTVDRRPATADEALRALETRPLVLLMHGFGSFEGDLISLAAELPDGIVCASPRAPLTLPPPTVNGYAWWEIVFRADGTVVRSDPPAFEDSDAHTATLAILAWLDALDARVAGGLRTVVPLGFSQGGCMVTSLLRMQPTRFPCGVNCSGFVAPGSYAGDPELAAIRPPLFWGRDPADPIIEAERIDATAVWSAAHTAIEAHIYHGIGHGIGREEIADISAFIERHLAEAEH
# notes: pPAL7 N-terminal Profinity eXact tag cleaved on column; E. coli BL21 Star (DE3); monomer; primers encode MTELRI... start and ...AEAEH end
# Substrate: CC(=O)Oc1ccc([N+](=O)[O-])cc1
# Assay: purified protein
# Format: biochemical, uncultured sludge bacterium
# Details: 50 mM Tris-HCl pH 8.0, 40 °C, 5 min, 0.08-1.0 mM substrate
protein,measurement,value
B1,Km,1.07 mM
same,kcat,10.46 s⁻¹
